Results taken from patent US10633455B2, “Method for treating and diagnosing disease using inhibitors of goodpasture antigen binding protein” (Fibrostatin S.L., priority 2011, dated 2020).

What was measured:
[1] = molecular target: T1, GPBP (Homo sapiens, UniProt Q9Y5P4); assay: Inhibition of autophosphorylating activity of GPBP in vitro; assay type: biochemical; settings: Pretswick Chemical Library selection (not shown)
T1 sequence (Q9Y5P4 1-624): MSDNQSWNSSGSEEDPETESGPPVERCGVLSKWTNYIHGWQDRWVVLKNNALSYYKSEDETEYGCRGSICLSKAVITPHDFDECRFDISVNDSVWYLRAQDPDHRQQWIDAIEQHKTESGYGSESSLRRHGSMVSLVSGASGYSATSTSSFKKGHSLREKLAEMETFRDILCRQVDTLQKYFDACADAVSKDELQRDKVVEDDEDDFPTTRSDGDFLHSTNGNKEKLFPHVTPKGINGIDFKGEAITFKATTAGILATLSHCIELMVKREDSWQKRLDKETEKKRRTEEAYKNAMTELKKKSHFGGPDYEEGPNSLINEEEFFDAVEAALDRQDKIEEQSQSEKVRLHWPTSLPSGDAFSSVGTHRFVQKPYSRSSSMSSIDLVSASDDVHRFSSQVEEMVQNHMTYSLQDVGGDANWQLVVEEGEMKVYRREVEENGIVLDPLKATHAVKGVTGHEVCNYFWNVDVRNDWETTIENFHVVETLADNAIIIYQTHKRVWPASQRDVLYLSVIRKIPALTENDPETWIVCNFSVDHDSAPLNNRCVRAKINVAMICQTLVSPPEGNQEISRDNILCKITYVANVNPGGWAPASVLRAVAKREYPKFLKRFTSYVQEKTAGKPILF

[2] = tested on: doxorubicin-induced PF; assay: Doxorubicin-induced pulmonary fibrosis in mice; assay type: in vivo, C57BL/6 male mice
Experimental: For induction of PF with doxorubicin (Example 3), eight to ten weeks-old C57BL/6 male mice were purchased from Harlan Ibérica (Barcelona, Spain). For intratracheal (i.t.) instillation of doxorubicin (Sigma), mice were anesthetized by intraperitoneal (i.p.) injection of ketamine (50 μg/g of body weight), atropine sulphate (0.2 μg/g) and diazepam (4 μg/g). The trachea was localized by cutaneous incision in the anterior face of the neck and immobilized with forceps. Then 75 μl of doxorubicin chlorhydrate (1 mg/ml) were injected i.t. with a 30 G needle. Skin was then sutured with 3/0 silk. Mice were fed ad libitum with a normal chow diet and bled from the retro-orbital plexus at different time points after doxorubicin i.t. instillation. […] Mice instilled i.t. with doxorubicin were daily injected i.p. with either with 0.027, 0.08, 0.25 or 1.225 mg/kg of Pinacidil or with 0.11, 0.34 or 0.95 mg/kg of Myricetin. Mice were sacrificed twelve days after doxorubicin administration for gene expression analysis and anatomopathological studies of the lungs.
In PF assays, mouse lungs were intrabronchially perfused with 4% phosphate buffered formalin, then incubated in this fixative during 24 hours and finally embedded in paraffin. Tissue sections of 5 μm were stained with HE or with Masson's trichrome following conventional methods. For immunohistochemistry, paraffin-embedded lungs were stained with anti-GPBP-pep1 antibodies (3), which was detected with anti-chicken-HPR and DAB substrate (Dako Diagnósticos, S.A., Barcelona Spain). Specimens were counterstained with hematoxylin.
In assays of experimental pulmonary fibrosis, the expression of GPBP and of collagens type I and type IV mRNAs in the lung was analyzed by real-time quantitative PCR (RT-qPCR). One μg of the isolated RNA was used for cDNA synthesis with a RT-PCR kit (Amersham Pharmacia Biotech, Piscataway, N.J.), according to the manufacturer instructions. RT-qPCR was performed on a MX-3000P Stratagene instrument (Agilent Technologies, Inc., Santa Clara, Calif.) using specific primers SYBR Green PCR Master Mix (Applied Biosystems, Life Technologies Corporation). Primers used were: for α1(I) collagen gene, 5′ primer 5′-[…]-3′ (SEQ ID NO: 12) and 3′ primer 5′-[…]-3′ (SEQ ID NO: 13); for GPBP gene, 5′ primer 5′-[…]-3′ (SEQ ID NO: 14) and 3′ primer 5′-[…]-3′(SEQ ID NO: 15); for 18S gene, 5′ primer 5′-[…]-3′ (SEQ ID NO: 16) and 3′ primer 5′-[…]-3′ (SEQ ID NO: 17). Results (in triplicate) were normalized to the ribosomal 18S subunit expression and measured in parallel in each sample. Data were expressed as mean fold change relative to control samples.

[3] = tested on: A549 cells; assay: mRNA expression profile / KEGG pathway analysis of A549 cells cultured with rcGPBP-1; assay type: cell-based, human; settings: 200 ng/mL
Experimental: Human A549 cells were cultured with or without 200 ng/mL of rcGPBP-1 for 3 hours. Then cells were lysed and total RNA was extracted with RNeasy™ Protect mini kit (Qiagen, Valencia, Calif.) according to manufacturer's recommendations. RNA was quantified by spectrometry with a NanoDrop™ ND1000 (NanoDrop Technologies, Wilminton, Del.) and quality confirmed by RNA 6000 Nano Bioanalyzer (Agilent Technologies, Palo Alto, Calif.) assay. Briefly, 150 ng of total RNA were used to produce Cyanine 3-CTP-labeled cRNA using the Low Input Quick™ Amp Labelling Kit One-Color (Agilent) according to the manufacturer's instructions. Following ‘One-Color Microarray-Based Gene Expression Analysis’ protocol Version 6.0 (Agilent), 1600 ng of labelled cRNA were hybridized with the Whole Human Genome Oligo Microarray Kit (Agilent) containing 41000+ unique human genes and transcripts. Arrays were scanned in an Agilent Microarray Scanner according to the manufacturer's instructions and data extracted using Agilent Feature Extraction Software 10.7.1 following the Agilent protocol GE1_107_Sep09, grid template 014850_D_F_20100430 and the QC Metric Set GE1_QCMT_Sep09. Analysis was performed in the Genomics Core Service of the Centro de Investigación Príncipe Felipe (Valencia, Spain) using an Agilent Microarray Scanner (Agilent Technologies, Palo Alto, Calif.).
Raw data files were background corrected using supplier's methodology and intensity signal standardized across arrays via quantile normalization algorithm. Differential gene expression assessment of all comparisons was carried out using limma moderated t-statistics. Conventional adjustment for multiple testing proposed by Benjamini Hochberg (5) was used to derive adjusted P-values. Also, for each of the comparisons performed in the study, gene set analysis was carried out using logistic regression models, and correcting for multiple testing as before (5). All analyses where carried out using Babelomics™ (6) web suite at the Bioinformatics Department of Centro de Investigación Príncipe Felipe. Array data have been deposited in GEO (accession number GSE32181).

[4] = A549 + rcGPBP-1 vs A549, 3 hours, P. adjusted 0.1576

## O=c1c(O)c(-c2cc(O)c(O)c(O)c2)oc2cc(O)cc(O)c12 [myricetin]
[1]
  autophosphorylating activity of GPBP: inhibit the autophosphorylating activity of GPBP in vitro
[2]; all doses tested (0.11, 0.34 or 0.95 mg/kg daily i.p.), day 12 (FIG. 11B)
  doxorubicin-induced fibrosis (α1(I) collagen mRNA): efficient reduction

## CC(N/C(=N\C#N)Nc1ccncc1)C(C)(C)C (centres unmarked) [pinacidil]
[1]
  autophosphorylating activity of GPBP: inhibit the autophosphorylating activity of GPBP in vitro
[2]; daily dose of 0.08 mg/kg i.p., day 12, RT-qPCR (FIG. 11A)
  expression of pulmonary α1(I) collagen mRNA: significant reduced expression
[2]; daily dose of 0.08 mg/kg i.p., days 0-12, histology (FIG. 10)
  severity of doxorubicin-induced pulmonary fibrosis: sharply reduced
[2]; higher doses, 0.25 or 1.225 mg/kg/day (FIG. 11A)
  therapeutic effect (α1(I) collagen mRNA): lost

B1: rcGPBP-1: Recombinant cGPBP-1 purified from culture media of a HEK 293 cell clone that constitutively secretes FLAG-GPBP-1 (protein)
chain: MSDNQSWNSSGSEEDPETESGPPVERCGVLSKWTNYIHGWQDRWVVLKNNALSYYKSEDETEYGCRGSICLSKAVITPHDFDECRFDISVNDSVWYLRAQDPDHRQQWIDAIEQHKTESGYGSESSLRRHGSMVSLVSGASGYSATSTSSFKKGHSLREKLAEMETFRDILCRQVDTLQKYFDACADAVSKDELQRDKVVEDDEDDFPTTRSDGDFLHSTNGNKEKLFPHVTPKGINGIDFKGEAITFKATTAGILATLSHCIELMVKREDSWQKRLDKETEKKRRTEEAYKNAMTELKKKSHFGGPDYEEGPNSLINEEEFFDAVEAALDRQDKIEEQSQSEKVRLHWPTSLPSGDAFSSVGTHRFVQKPYSRSSSMSSIDLVSASDDVHRFSSQVEEMVQNHMTYSLQDVGGDANWQLVVEEGEMKVYRREVEENGIVLDPLKATHAVKGVTGHEVCNYFWNVDVRNDWETTIENFHVVETLADNAIIIYQTHKRVWPASQRDVLYLSVIRKIPALTENDPETWIVCNFSVDHDSAPLNNRCVRAKINVAMICQTLVSPPEGNQEISRDNILCKITYVANVNPGGWAPASVLRAVAKREYPKFLKRFTSYVQEKTAGKPILF
[3]; A549 + rcGPBP-1 vs A549, 3 hours, P. adjusted 0.0003
  Log Odds Ratio, KEGG pathway hsa05322 SLE: 0.1444
[3]; [4]
  Log Odds Ratio, KEGG pathway hsa00380 Tryptophan metabolism: −0.1522
  Log Odds Ratio, KEGG pathway hsa04120 Ubiquitin mediated proteolysis: −0.1130
  Log Odds Ratio, KEGG pathway hsa04210 Apoptosis: −0.1307
  Log Odds Ratio, KEGG pathway hsa05200 Pathways in cancer: −0.0843
  Log Odds Ratio, KEGG pathway hsa05211 Renal cell carcinoma: −0.1355
  Log Odds Ratio, KEGG pathway hsa05222 Small cell lung cancer: −0.1253
[3]; A549 + rcGPBP-1 vs A549, 3 hours, P. adjusted 0.1579
  Log Odds Ratio, KEGG pathway hsa04510 Focal adhesion: −0.0969
[3]; A549 + rcGPBP-1 vs A549, 3 hours, P. adjusted 0.1771
  Log Odds Ratio, KEGG pathway hsa04914 Progesterone-mediated oocyte maturation: −0.1223
[3]; A549 + rcGPBP-1 vs A549, 3 hours, P. adjusted 0.3348
  Log Odds Ratio, KEGG pathway hsa05218 Melanoma: −0.1196
[3]; A549 cells, microarray
  changes in the expression of individual genes: No statistically significant changes
